Laboratory results published in patent US20040254351A1 (published 2004).
Positions count from the first letter of the chain named. Numbers in names are those of the source.

T1: G-CSF receptor
T1 sequence (Q99062 whole entry, species assumed, looked up): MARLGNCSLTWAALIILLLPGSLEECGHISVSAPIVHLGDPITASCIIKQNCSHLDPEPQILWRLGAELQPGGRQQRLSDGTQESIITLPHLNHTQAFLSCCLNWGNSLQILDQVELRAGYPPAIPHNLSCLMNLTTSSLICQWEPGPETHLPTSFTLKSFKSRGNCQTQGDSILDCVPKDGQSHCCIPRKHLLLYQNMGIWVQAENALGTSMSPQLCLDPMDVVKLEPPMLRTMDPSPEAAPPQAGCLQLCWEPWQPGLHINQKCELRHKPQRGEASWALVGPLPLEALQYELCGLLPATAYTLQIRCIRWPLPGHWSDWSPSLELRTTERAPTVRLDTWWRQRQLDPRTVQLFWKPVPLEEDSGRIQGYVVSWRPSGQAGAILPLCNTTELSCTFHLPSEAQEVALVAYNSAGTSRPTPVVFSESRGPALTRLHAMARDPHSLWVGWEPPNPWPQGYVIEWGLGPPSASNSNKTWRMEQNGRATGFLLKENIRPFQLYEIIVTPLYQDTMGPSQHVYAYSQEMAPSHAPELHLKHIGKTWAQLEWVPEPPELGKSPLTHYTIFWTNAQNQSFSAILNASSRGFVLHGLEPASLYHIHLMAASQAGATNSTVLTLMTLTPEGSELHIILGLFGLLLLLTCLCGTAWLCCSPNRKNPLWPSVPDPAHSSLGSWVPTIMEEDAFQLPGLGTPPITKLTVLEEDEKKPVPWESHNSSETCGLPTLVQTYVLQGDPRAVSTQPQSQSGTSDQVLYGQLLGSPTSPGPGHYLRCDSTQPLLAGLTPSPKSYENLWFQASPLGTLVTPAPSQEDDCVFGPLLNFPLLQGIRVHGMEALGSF

B1: G-CSF[E93N,I95T] (ligand)
chain: TPLGPASSLPQSFLLKALEQVRKIQGDGAALQEKLCATYKLCHPEELVLLGHSLGIPWAPLSSCPSQALQLAGCLSQLHSGLFLYQGLLQALNGTSPELGPTLDTLQLDVADFATTIWQQMEELGMAPALQPTQGAMPAFASAFQRRAGGVLVASHLQSFLEVSYRVLRHLAQP
modifications: consensus N-linked glycosylation site at Asn 93 (region 10)
B2: G-CSF[A141N,A143T] (ligand)
chain: B1 chain with N93E, T95I, A141N, A143T
modifications: consensus N-linked glycosylation site at Asn 141 (region 14)
B3: G-CSF[A37N,Y39T,S63N,P65T,E93N,I95T] (ligand)
chain: B1 chain with A37N, Y39T, S63N, P65T
modifications: consensus N-linked glycosylation sites at Asn 37, Asn 63 and Asn 93 (regions 1, 7 and 10)
B4: G-CSF[A37N,Y39T,P57V,W58N,P60T,Q67N,L69T] (ligand)
chain: B1 chain with A37N, Y39T, P57V, W58N, P60T, Q67N, L69T, N93E, T95I
modifications: consensus N-linked glycosylation sites at Asn 37, Asn 58 and Asn 67 (regions 1, 2 and 9)
B5: G-CSF[Q67N,L69T] (ligand)
chain: B1 chain with Q67N, L69T, N93E, T95I
modifications: consensus N-linked glycosylation site at Asn 67 (region 9)
B6: G-CSF[T133N,G135T] (ligand)
chain: B1 chain with N93E, T95I, T133N, G135T
modifications: consensus N-linked glycosylation site at Asn 133 (region 13), replacing the O-linked site
B7: G-CSF[P57V,W58N,P60T] (ligand)
chain: B1 chain with P57V, W58N, P60T, N93E, T95I
modifications: consensus N-linked glycosylation site at Asn 58 (region 2)
B8: G-CSF[S63N,P65T] (ligand)
chain: B1 chain with S63N, P65T, N93E, T95I
modifications: consensus N-linked glycosylation site at Asn 63 (region 7)
B9: G-CSF[P60N,S62T] (ligand)
chain: B1 chain with P60N, S62T, N93E, T95I
modifications: consensus N-linked glycosylation site at Asn 60 (region 4)
B10: G-CSF[A37N,Y39T] (ligand)
chain: B1 chain with A37N, Y39T, N93E, T95I
modifications: consensus N-linked glycosylation site at Asn 37 (region 1)

Target: T1, G-CSF receptor
Assay: cell-based or functional assay

Row | Binder | EC50/Neupogen (reporter activity in cells expressing the G-CSF receptor)
1 | B1 | 0.36 ratio to Neupogen
2 | B2 | 0.54 ratio to Neupogen
3 | B3 | 0.97 ratio to Neupogen
4 | B4 | 0.53 ratio to Neupogen
5 | B5 | 0.78 ratio to Neupogen
6 | B6 | 0.37 ratio to Neupogen
7 | B7 | 0.59 ratio to Neupogen
8 | B8 | 0.9 ratio to Neupogen
9 | B9 | 0.94 ratio to Neupogen
10 | B10 | 0.8 ratio to Neupogen
